# Measured values from paper PMC10786891, “Massively parallel profiling of RNA-targeting CRISPR-Cas13d”.
# T1: EsCas13d, nuclease-dead (Eubacterium siraeum, UniProt B0MS50, R295A;H300A;R849A;H854A)
# T1 sequence: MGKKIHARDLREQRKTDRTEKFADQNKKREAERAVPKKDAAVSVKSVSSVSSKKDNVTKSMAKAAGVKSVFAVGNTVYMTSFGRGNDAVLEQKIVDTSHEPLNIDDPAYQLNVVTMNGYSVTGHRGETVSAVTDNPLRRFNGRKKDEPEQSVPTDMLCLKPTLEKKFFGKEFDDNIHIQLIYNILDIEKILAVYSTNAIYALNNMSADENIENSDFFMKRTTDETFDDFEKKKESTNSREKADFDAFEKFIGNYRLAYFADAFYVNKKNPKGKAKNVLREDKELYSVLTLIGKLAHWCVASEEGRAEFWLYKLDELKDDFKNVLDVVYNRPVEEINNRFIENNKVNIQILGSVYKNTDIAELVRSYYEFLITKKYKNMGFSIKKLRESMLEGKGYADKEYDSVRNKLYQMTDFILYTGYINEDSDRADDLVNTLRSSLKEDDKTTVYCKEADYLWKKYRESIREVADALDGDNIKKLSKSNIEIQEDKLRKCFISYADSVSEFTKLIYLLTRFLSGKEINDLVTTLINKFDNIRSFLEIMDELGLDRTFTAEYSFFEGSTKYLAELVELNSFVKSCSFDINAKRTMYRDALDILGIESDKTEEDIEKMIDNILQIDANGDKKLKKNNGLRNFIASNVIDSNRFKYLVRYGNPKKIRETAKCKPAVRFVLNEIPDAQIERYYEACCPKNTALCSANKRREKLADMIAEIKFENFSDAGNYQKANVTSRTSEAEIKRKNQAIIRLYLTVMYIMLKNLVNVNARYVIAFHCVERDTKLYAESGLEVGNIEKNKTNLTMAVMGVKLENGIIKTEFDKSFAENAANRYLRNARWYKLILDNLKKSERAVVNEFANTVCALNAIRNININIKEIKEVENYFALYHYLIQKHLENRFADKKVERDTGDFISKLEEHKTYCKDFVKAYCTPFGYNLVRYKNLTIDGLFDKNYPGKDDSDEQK
# Target: T1, EsCas13d, nuclease-dead
# Assay: crRNA (strand 1, pre-loaded); Mg2+; 40 mM Tris-HCl pH 7.5, 150 mM NaCl, 6 mM MgCl2, 1 mM DTT, 0.1% Tween-20, 0.2 mg/ml BSA; 25 C; 10 min per concentration, then washed
# Details: tags: His6-TwinStrep-SUMO cleaved; N-terminal SNAP kept (SNAP-Surface 488); label: 3' end held by stalled T7 RNA polymerase
row,Binder,Kd [nM]
1,"target 1 U8G,A14G (mixed) RNA 1: CACCCGUGCAAAAAUGCAGGGGUCUAAAACUGAGCGGAUAACCUCUCUAUGG RNA 2: GGGAAUGGAUCCACAUCUACGAAUUCGUACCAUAGAGGGGUUAGCCGCUCACCGAGAUCGGAAGAGCACACGU",22.9 ± 1.2
2,"target 1 insG 3' of 4,insC 3' of 1 (mixed) RNA 1: CACCCGUGCAAAAAUGCAGGGGUCUAAAACUGAGCGGAUAACCUCUCUAUGG RNA 2: GGGAAUGGAUCCACAUCUACGAAUUCGUACCAUAGAGAGGUUAUCCGCGUCACCCGAGAUCGGAAGAGCACACGU",12.6 ± 1
3,"target 1 insA 3' of 17,insU 3' of 9 (mixed) RNA 1: CACCCGUGCAAAAAUGCAGGGGUCUAAAACUGAGCGGAUAACCUCUCUAUGG RNA 2: GGGAAUGGAUCCACAUCUACGAAUUCGUACCAUAGAAGAGGUUAUUCCGCUCACCGAGAUCGGAAGAGCACACGU",18.6 ± 3.3
4,target 2 MT 5'PFS AUU 3'PFS CAA (mixed) RNA 1: CACCCGUGCAAAAUUGCAGGGGUCUAAAACCUUCUCCAAAUUGUUUCAUCCU RNA 2: GGGAAUGGAUCCACAUCUACGAAUUCAUUAGGAUGAAACAAUUUGGAGAAGCAAAGAUCGGAAGAGCACACGU,5 ± 0.6
5,target 2 MT 5'PFS ACU 3'PFS CUC (mixed) RNA 1: CACCCGUGCAAAAUUGCAGGGGUCUAAAACCUUCUCCAAAUUGUUUCAUCCU RNA 2: GGGAAUGGAUCCACAUCUACGAAUUCACUAGGAUGAAACAAUUUGGAGAAGCUCAGAUCGGAAGAGCACACGU,5.4 ± 1.4
6,target 2 MT 5'PFS GAC 3'PFS ACC (mixed) RNA 1: CACCCGUGCAAAAUUGCAGGGGUCUAAAACCUUCUCCAAAUUGUUUCAUCCU RNA 2: GGGAAUGGAUCCACAUCUACGAAUUCGACAGGAUGAAACAAUUUGGAGAAGACCAGAUCGGAAGAGCACACGU,14.7 ± 2.3
7,target 2 MT 5'PFS AAC 3'PFS UAA (mixed) RNA 1: CACCCGUGCAAAAUUGCAGGGGUCUAAAACCUUCUCCAAAUUGUUUCAUCCU RNA 2: GGGAAUGGAUCCACAUCUACGAAUUCAACAGGAUGAAACAAUUUGGAGAAGUAAAGAUCGGAAGAGCACACGU,7.4 ± 2.6
8,target 2 MT 5'PFS ACU 3'PFS CUU (mixed) RNA 1: CACCCGUGCAAAAUUGCAGGGGUCUAAAACCUUCUCCAAAUUGUUUCAUCCU RNA 2: GGGAAUGGAUCCACAUCUACGAAUUCACUAGGAUGAAACAAUUUGGAGAAGCUUAGAUCGGAAGAGCACACGU,6.2 ± 0.6
9,target 2 MT 5'PFS ACU 3'PFS CUG (mixed) RNA 1: CACCCGUGCAAAAUUGCAGGGGUCUAAAACCUUCUCCAAAUUGUUUCAUCCU RNA 2: GGGAAUGGAUCCACAUCUACGAAUUCACUAGGAUGAAACAAUUUGGAGAAGCUGAGAUCGGAAGAGCACACGU,6 ± 0.7
10,target 2 MT 5'PFS CGA 3'PFS UUC (mixed) RNA 1: CACCCGUGCAAAAUUGCAGGGGUCUAAAACCUUCUCCAAAUUGUUUCAUCCU RNA 2: GGGAAUGGAUCCACAUCUACGAAUUCCGAAGGAUGAAACAAUUUGGAGAAGUUCAGAUCGGAAGAGCACACGU,11.5 ± 1.9
11,target 2 MT 5'PFS GAC 3'PFS ACG (mixed) RNA 1: CACCCGUGCAAAAUUGCAGGGGUCUAAAACCUUCUCCAAAUUGUUUCAUCCU RNA 2: GGGAAUGGAUCCACAUCUACGAAUUCGACAGGAUGAAACAAUUUGGAGAAGACGAGAUCGGAAGAGCACACGU,13.6 ± 2.1
12,target 2 MT 5'PFS UAG 3'PFS UGA (mixed) RNA 1: CACCCGUGCAAAAUUGCAGGGGUCUAAAACCUUCUCCAAAUUGUUUCAUCCU RNA 2: GGGAAUGGAUCCACAUCUACGAAUUCUAGAGGAUGAAACAAUUUGGAGAAGUGAAGAUCGGAAGAGCACACGU,4.1 ± 0.8
13,target 2 MT 5'PFS AAC 3'PFS ACU (mixed) RNA 1: CACCCGUGCAAAAUUGCAGGGGUCUAAAACCUUCUCCAAAUUGUUUCAUCCU RNA 2: GGGAAUGGAUCCACAUCUACGAAUUCAACAGGAUGAAACAAUUUGGAGAAGACUAGAUCGGAAGAGCACACGU,9.1 ± 3.1
14,target 2 MT 5'PFS GAA 3'PFS AUC (mixed) RNA 1: CACCCGUGCAAAAUUGCAGGGGUCUAAAACCUUCUCCAAAUUGUUUCAUCCU RNA 2: GGGAAUGGAUCCACAUCUACGAAUUCGAAAGGAUGAAACAAUUUGGAGAAGAUCAGAUCGGAAGAGCACACGU,10.2 ± 1.6
15,target 2 MT 5'PFS GCC 3'PFS UCA (mixed) RNA 1: CACCCGUGCAAAAUUGCAGGGGUCUAAAACCUUCUCCAAAUUGUUUCAUCCU RNA 2: GGGAAUGGAUCCACAUCUACGAAUUCGCCAGGAUGAAACAAUUUGGAGAAGUCAAGAUCGGAAGAGCACACGU,17 ± 4
16,target 2 MT 5'PFS GAC 3'PFS ACA (mixed) RNA 1: CACCCGUGCAAAAUUGCAGGGGUCUAAAACCUUCUCCAAAUUGUUUCAUCCU RNA 2: GGGAAUGGAUCCACAUCUACGAAUUCGACAGGAUGAAACAAUUUGGAGAAGACAAGAUCGGAAGAGCACACGU,12.9 ± 2.6
17,target 2 MT 5'PFS ACU 3'PFS CUA (mixed) RNA 1: CACCCGUGCAAAAUUGCAGGGGUCUAAAACCUUCUCCAAAUUGUUUCAUCCU RNA 2: GGGAAUGGAUCCACAUCUACGAAUUCACUAGGAUGAAACAAUUUGGAGAAGCUAAGAUCGGAAGAGCACACGU,3.5 ± 0.5
18,target 2 MT 5'PFS UUU 3'PFS UAC (mixed) RNA 1: CACCCGUGCAAAAUUGCAGGGGUCUAAAACCUUCUCCAAAUUGUUUCAUCCU RNA 2: GGGAAUGGAUCCACAUCUACGAAUUCUUUAGGAUGAAACAAUUUGGAGAAGUACAGAUCGGAAGAGCACACGU,9.1 ± 1.2
19,target 2 MT 5'PFS GAA 3'PFS AUA (mixed) RNA 1: CACCCGUGCAAAAUUGCAGGGGUCUAAAACCUUCUCCAAAUUGUUUCAUCCU RNA 2: GGGAAUGGAUCCACAUCUACGAAUUCGAAAGGAUGAAACAAUUUGGAGAAGAUAAGAUCGGAAGAGCACACGU,8.1 ± 1.4
20,target 2 MT 5'PFS UUU 3'PFS UAA (mixed) RNA 1: CACCCGUGCAAAAUUGCAGGGGUCUAAAACCUUCUCCAAAUUGUUUCAUCCU RNA 2: GGGAAUGGAUCCACAUCUACGAAUUCUUUAGGAUGAAACAAUUUGGAGAAGUAAAGAUCGGAAGAGCACACGU,10.9 ± 1.7
21,target 2 MT 5'PFS AAC 3'PFS UAG (mixed) RNA 1: CACCCGUGCAAAAUUGCAGGGGUCUAAAACCUUCUCCAAAUUGUUUCAUCCU RNA 2: GGGAAUGGAUCCACAUCUACGAAUUCAACAGGAUGAAACAAUUUGGAGAAGUAGAGAUCGGAAGAGCACACGU,6.8 ± 1.6
22,target 2 MT 5'PFS AAC 3'PFS UAC (mixed) RNA 1: CACCCGUGCAAAAUUGCAGGGGUCUAAAACCUUCUCCAAAUUGUUUCAUCCU RNA 2: GGGAAUGGAUCCACAUCUACGAAUUCAACAGGAUGAAACAAUUUGGAGAAGUACAGAUCGGAAGAGCACACGU,5.2 ± 1.2
23,target 2 MT 5'PFS GUA 3'PFS UGC (mixed) RNA 1: CACCCGUGCAAAAUUGCAGGGGUCUAAAACCUUCUCCAAAUUGUUUCAUCCU RNA 2: GGGAAUGGAUCCACAUCUACGAAUUCGUAAGGAUGAAACAAUUUGGAGAAGUGCAGAUCGGAAGAGCACACGU,11.4 ± 1.5
24,target 2 MT 5'PFS GAA 3'PFS AUG (mixed) RNA 1: CACCCGUGCAAAAUUGCAGGGGUCUAAAACCUUCUCCAAAUUGUUUCAUCCU RNA 2: GGGAAUGGAUCCACAUCUACGAAUUCGAAAGGAUGAAACAAUUUGGAGAAGAUGAGAUCGGAAGAGCACACGU,8.3 ± 1.1
